Results: the supplement of paper PMC9732359
± gives the uncertainty stated by the source.

Assay: protein stability index of a GFP-peptide fusion (yeast GPS) (PSI 1-4); higher = more stable; sorted into four equal gates, so the index is relative within each strain
Outline: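 The protein stability index combines read frequencies across sorting gates, each weighted by its gate number and then summed. To obtain those frequencies, a pooled yeast library of GFP fusions to tiled 17-residue yeast protein peptides, on a plasmid also expressing Cherry, was grown to mid-log phase in leucine-free medium. The cells were sorted into four equal gates by GFP/Cherry ratio before plasmid amplification by PCR and Illumina sequencing.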

Sequence	protein stability index (doa10∆)	protein stability index (pdr5∆)	protein stability index (san1∆)	protein stability index (ubr1∆)
LATPVQFELLSRRWRQR [BRR2]	1.79 ± 0.072	1.87 ± 0.054	1.81 ± 0.072	2.17 ± 0.051
DAITVKDVKAWAGKRLW [COR1]	3.01 ± 0.069	2.8 ± 0.067	2.87 ± 0.063	2.37 ± 0.044
LIKKPLTVFYAIKKFKT [SSN3]	1.51 ± 0.11	1.56 ± 0.048	1.77 ± 0.091	1.42 ± 0.075
GQNLKDLLVNFSAGAAA [RPP1A]	2.27 ± 0.13	2.18 ± 0.2	2.02 ± 0.21	2.13 ± 0.15
VDPLKSLEDKILRMGAF [RRI1]	3.19 ± 0.12	3.04 ± 0.14	2.88 ± 0.12	2.94 ± 0.094
DDIFIPQNMLFEGCYYT [RPC25]	2.51 ± 0.17	2.89 ± 0.23	2.43 ± 0.12	2.76 ± 0.12
AKNRILASKIKQYERLR [RRI1]	2.48 ± 0.052	2.4 ± 0.049	2.37 ± 0.051	2.58 ± 0.036
NNANVLGGEINDNEDDD [BRR2]	3.3 ± 0.095	3.2 ± 0.082	3.3 ± 0.072	2.98 ± 0.061
QVVTTVASQSPHATATE [SNF6]	2.56 ± 0.11	2.88 ± 0.079	2.6 ± 0.096	2.79 ± 0.047
RGPYLVIVPLSTLSNWS [SNF2]	1.84 ± 0.051	2.32 ± 0.062	2.17 ± 0.065	2.41 ± 0.035
PNIHQNLLPKKSAKATK [HTA1]	2.53 ± 0.093	2.66 ± 0.082	2.69 ± 0.1	2.49 ± 0.061
NNLKNSGNSANNMNVNM [GAL11]	2.92 ± 0.046	2.9 ± 0.041	2.87 ± 0.035	3.02 ± 0.039
DLKASQRVCLRSDSYML [RPT6]	2.92 ± 0.1	3.08 ± 0.077	2.92 ± 0.075	2.82 ± 0.051
YWQFNGVIALGQFVTLG [RMP1]	3.23 ± 0.094	2.79 ± 0.086	2.11 ± 0.086	2.91 ± 0.055
ICLMTLIETVFVKNIRM [RPN9]	1.22 ± 0.064	1.3 ± 0.069	1.22 ± 0.13	1.35 ± 0.074
AILYTKPGHVLQEEWDQ [YGR119C/NUP57]	–	3.25 ± 0.14	–	3.81 ± 0.23
KVSKNSTSFKNPRRLEI [YMR153W/NUP53]	2.85 ± 0.059	2.87 ± 0.057	2.88 ± 0.057	2.71 ± 0.032
TEYCVGDYVAYQLNGVA [YMR129W/POM152]	2.83 ± 0.14	3.1 ± 0.13	2.1 ± 0.23	2.52 ± 0.066
LKLDKIIHVLTTMFENT [RGR1]	2.07 ± 0.049	2.43 ± 0.069	2.39 ± 0.075	2.73 ± 0.044
VFLLTTRAGGLGINLVT [ISW2]	1.69 ± 0.076	1.7 ± 0.063	1.56 ± 0.13	1.4 ± 0.13

Sequence	protein stability index (doa10∆)	protein stability index (pdr5∆)	protein stability index (san1∆)	protein stability index (ubr1∆)
VGSVTYQVDEDVKSSLS [YJL039C/NUP192]	3.26 ± 0.15	3.2 ± 0.13	3.29 ± 0.062	3.48 ± 0.1
MASTAVMMDVDSSGVND [RPN3]	3.17 ± 0.19	3.51 ± 0.2	–	3.26 ± 0.091
NAFRKEELLLKDLEIRK [GAL11]	–	3.09 ± 0.098	3.18 ± 0.079	3.03 ± 0.13
CKLFDKISFNLRLKLFL [SRB8]	1.41 ± 0.069	1.23 ± 0.055	1.2 ± 0.086	1.18 ± 0.046
TTDDEEEPIKKLCYVLG [RET1]	3.42 ± 0.27	3.29 ± 0.18	–	3.46 ± 0.17
DLSLNIHPIPSVTVSQG [YMR129W/POM152]	1.98 ± 0.055	2.43 ± 0.057	1.98 ± 0.074	2.17 ± 0.039
KELELERKEREDFQKRQ [SWI1]	3.25 ± 0.076	3.22 ± 0.078	3.32 ± 0.068	3.31 ± 0.045
SLKNDLPQFRSSIQESL [ECM29]	2.9 ± 0.076	2.92 ± 0.07	3.22 ± 0.077	3.07 ± 0.087
HKKKRSNAAGADDAISM [SRB8]	3.06 ± 0.11	2.45 ± 0.067	2.83 ± 0.18	2.75 ± 0.054
EPKKDKESIVLPTVGFD [YOR098C/NUP1]	2.43 ± 0.18	3.43 ± 0.19	3.11 ± 0.16	2.92 ± 0.07
NDSNPSFSFSIPSKNTP [YLR335W/NUP2]	2.42 ± 0.048	2.13 ± 0.04	2.58 ± 0.046	2.64 ± 0.047
DMPSLRLIDLSGCENIT [GRR1]	2.33 ± 0.083	2.7 ± 0.097	2.45 ± 0.094	2.65 ± 0.09
RTLWPEFIPPDPTKVTE [SSN8]	2.49 ± 0.042	2.73 ± 0.038	2.78 ± 0.04	2.671 ± 0.026
YSSVAGTVSRVNRLLSV [RRP4]	1.74 ± 0.036	1.77 ± 0.038	1.82 ± 0.053	1.8 ± 0.03
ESNRQSVIVDSKVTVPP [ESC2]	2.47 ± 0.11	2.87 ± 0.082	2.81 ± 0.079	2.81 ± 0.048
IINKLIHIQSKENYPWE [POP3]	2.65 ± 0.067	2.44 ± 0.047	1.81 ± 0.068	2.41 ± 0.045
PANAEPQAVTITSIMDD [ITC1]	2.39 ± 0.11	2.83 ± 0.09	2.49 ± 0.069	3.02 ± 0.11
KDNDKNLKFLKNKDSLV [SRB4]	3.48 ± 0.094	3.21 ± 0.12	3.28 ± 0.072	3.34 ± 0.068
QSTNLNRSAKNSKNDSA [YCS4]	2.53 ± 0.05	2.63 ± 0.05	2.67 ± 0.064	2.79 ± 0.046
